Consider 97 sequences from the supplement of paper PMC6755084.

The data set relates to F1*sub RNA substrate (template-directed ligation). Nature of the data set: fraction ligated after 30 min (ligated reads / total reads); higher = more ligase activity; sequences stand for … in GAGACCGCAACTGAAAAGTTGT…AGTTCTGCACGTAGAAGCAAAAGGC
The settings on record: 42 °C. Summed up:
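Templates from an oligo pool were PCR-amplified, transcribed with T7 and gel-purified to give the ribozyme variants. Ligated and unligated products were separated on gel, reverse transcribed using barcoded primers, and read on a MiSeq. A quality filter of ≥20 was applied to core bases. Fraction ligated was taken as ligated reads as a share of all reads per variant.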
Take TACACTTGTCGTAAGACATTTGGAGGGTTGA [3d710]: the fraction ligated was determined as 0.0254. Then TATATTGTCGTAGACACTTTGGATGGGTTGA [3d764], with 0.499; and TATCTTGTCGTAAGACACTTTGGATGGTTGA [3d755], with 0.155; and “TATCACTTTGTAAGACACTTTGGATGGGTTGA [2d147]”, with 0.838. The figure for TTCACTTTCGTAAGACATTTGGATGGGTTGA [3d363] is 0.775; for TTCACTGTCGAAGACACTTTGGATGGGTTGA [3d341] it is 0.77; for “TATCACTTGTCGTGACACTTTGGATGGGTTA [3d1991]” it is 0.703.

“TATCATTGGTAAGACACTTTGGATGGGTTGA [3d1156]”: the fraction ligated came to 0.809. The figure for “TATCCTTGTCGAAGACATTTGGATGGGTTGA [3d1034]” is 0.79; for “TATCACTTGTCGTAAGCACTTTGGATGGGTT [3d2150]” it is 0.534; for “TATCACTTGTCGTAAGCATTTGGAGGGTTGA [3d2124]” it is 0.0316.

TACACTTGTCGTAAGAACTTTGGATGGGTTA [3d698]: the fraction ligated was 0.00405.

Sequence “TATCACTGTCGAAACACTTTGGATGGGTTGA [3d1373]” displayed a fraction ligated of 0.83. In turn, ATCACTTGTCGTAAGACACTTGGATGGGTTA [3d258] returned a fraction ligated of 0.214. Then TACATTGTCGTAAGACACTTTGGATGGGTTGA [2d49], with 0.223; and TACACTTGTCGTAAAACTTTGGATGGGTTGA [3d672], with 0.0463. In turn, TACACTGTCGAAGACACTTTGGATGGGTTGA [3d571] displayed a fraction ligated of 0.346.

Sequence “TATCACTGTCGTAAGACACTTGGATGGGTTG [3d1446]” showed a fraction ligated of 0.807. As for ATCACTTTCGTAAGACACTTTGGAGGGTTGA [3d136], the fraction ligated turned out to be 0.0337.

Sequence “TATCACTTGTCGTAGCCTTTGGATGGGTTGA [3d2004]” returned a fraction ligated of 0.768.

With “TATCATTGTCGTAGACACTTTGGATGGGTTG [3d1226]”, the fraction ligated was 0.799. For the sequence TATACTGTCGTAAGACACTTTGGTGGGTTGA [3d791], the fraction ligated stood at 0.0244. The figure for “TATCACTTGTCGTAAGCACTTTGGTGGGTTA [3d2143]” is 0.0888; for TATCCTGTCGTAAGACACTTTGGAGGGTTGA [3d964] it is 0.0143. Then “TATCACTTGTCGTAAGAACTTGGTGGGTTGA [3d2161]”, with 0.0804; and TACACTTGTCGTAAGACACTTTGGATGGGTTG [2d68], with 0.758; and “TATCCTTGTCGTAAGACACTTTGGAGGGTTG [3d1116]”, with 0.00286. Sequence “TATCACTTGTCGAGACACTTTGGATGGTTGA [3d1912]” returned a fraction ligated of 0.166. “TATCACTTGCGTAAGACATTTGGTGGGTTGA [3d1676]”: the fraction ligated worked out at 0.0926. Take TACACTTGTCGTAAGACTTTGGATGGGTTGA [3d682]: the fraction ligated was 0.409. Regarding TTCATTGTCGAAGACACTTTGGATGGGTTGA [3d322], the fraction ligated was 0.197.

As to “TATCACTGTCTAAGCACTTTGGATGGGTTGA [3d1361]”, the fraction ligated came to 0.771.

In the case of TTCACTGTCGTAGACACTTTGGATGGGTTGA [3d342], the fraction ligated turned out to be 0.775.

ATCACTTGTCGTAAGACACTTTGGAGGGTTA [3d271] had a fraction ligated of 0.0188. Consider TATCCTGTCGTAAGCACTTTGGATGGGTTGA [3d957], for which the fraction ligated is 0.783.

In turn, “TATCACTTGTCGTAGAACTTTGGATGGTTGA [3d2018]” gave a fraction ligated of 0.206. Then TATATTTCGTAAGACACTTTGGATGGGTTGA [3d759], with 0.245; and “TATCACTTCGTAAGCACTTTGGATGGGTTGA [3d1316]”, with 0.797.

As for “TATCACTGTGTAAGACACTTTGGATGGGTTA [3d1356]”, the fraction ligated is 0.823. Then “TATCACTTGTCGTAAGACACTTGGAGGTTGA [3d2248]”, with 0.00668; and “TATCACTTGTCGTAGACCTTTGATGGGTTGA [3d2022]”, with 0.759. The figure for “TATCACTTGCGTAAGACACTTTGGATGGTTG [3d1702]” is 0.208; for TATCTTGTGTAAGACACTTTGGATGGGTTGA [3d742] it is 0.867. Then “TATCACTTGTCGAAGACACTTTGGAGGGTTA [3d1975]”, with 0.136; and “TATCACTTGTCGTAAGATTTGGATGGGTTGA [3d2106]”, with 0.815.

Regarding TACACTTGTCGAAGACCTTTGGATGGGTTGA [3d650], the fraction ligated amounted to 0.1. The figure for “TATCACTTGTGTAAACCTTTGGATGGGTTGA [3d1745]” is 0.807; for “TATCACTTGTCGTAAGAACTTTGGATGGGTTG [2d261]” it is 0.81.

TAACTTGTCGTAAGACACTTTGATGGGTTGA [3d522] gave a fraction ligated of 0.0453. Then “TATCACTTGTGTAAGCATTTGGATGGGTTGA [3d1756]”, with 0.851; and ATCACTTGTCGTAAACACTTTGGATGGGTTGA [2d13], with 0.78; and TATACTTGTCGTAAGACACTTTGGATGGGTT [3d947], with 0.00683.

ATCACTTGTCGTAAACATTTGGATGGGTTGA [3d213] displayed a fraction ligated of 0.777.

In turn, “TATCATGTCTAAGACACTTTGGATGGGTTGA [3d1125]” had a fraction ligated of 0.759. Then “TATCACTTGTCGTAGACACTTTGGAGGGTTG [3d2054]”, with 0.0621; and ATCACTTGTCGTAAGACCTTTGGATGGTTGA [3d243], with 0.712. As for “TATCACTGTCGTAAGACACTGGATGGGTTGA [3d1440]”, the fraction ligated was 0.824. For the sequence TTCACTGTCGTAAGACACTTTGGTGGGTTGA [3d350], the fraction ligated worked out at 0.0639.

The sequence “TATCACTGTCGAAGACACTTTGGATGGTTGA [3d1382]” registered a fraction ligated of 0.336. “TATCACTTGTCGAAGAATTTGGATGGGTTGA [3d1935]” yielded a fraction ligated of 0.776. Then “TATCACTTGCGTAAGACACTTTGAGGGTTGA [3d1690]”, with 0.0844; and “TATCACTTGTCGTGACACTTTGATGGGTTGA [3d1987]”, with 0.508. The figure for “TATCATTGTCGTAAGACCTTTGGTGGGTTGA [3d1257]” is 0.426; for TACCTTGTCGTAAGACACTTTGGATGGGTTA [3d545] it is 0.548; for “TATCACTTCGTAAGACACTTTGGATGGGTTG [3d1326]” it is 0.795. Then TTACTTGTCGTAAGACACTTTGGATGGGTTG [3d297], with 0.299; and TTACTTGTCGTAAGACACTTTGATGGGTTGA [3d292], with 0.0869; and “TATCCTTGTCGTAAGACACTTTGGTGGTTGA [3d1111]”, with 0.0166. In turn, “TATCACTTGTGTAAGCACTTGGATGGGTTGA [3d1757]” registered a fraction ligated of 0.805.

Consider “TATCACTTGTCGTAAGACACTTTGGATGGTT [3d2281]”, for which the fraction ligated worked out at 0.024.

In the case of “TATCATTTCGTAAGCACTTTGGATGGGTTGA [3d1145]”, the fraction ligated was 0.786. The figure for “TATCACTTGCGTAGACACTTTGGATGGGTTG [3d1638]” is 0.816; for “TATCACTTGTCGTAAGAATTTGATGGGTTGA [3d2153]” it is 0.757; for “TATCACTTGTCGTAAGCACTTTGGATGGTTG [3d2149]” it is 0.17. Then “TATCACTTTCGAAGACACTTTGATGGGTTGA [3d1500]”, with 0.767; and “TATCCTTGTGTAAGACACTTTGATGGGTTGA [3d1009]”, with 0.799; and TATATTGTGTAAGACACTTTGGATGGGTTGA [3d761], with 0.778. Then “TATCACTTGTCGAAGACACTTGGATGGGTTG [3d1963]”, with 0.794; and TTCATTGTCGTAAACACTTTGGATGGGTTGA [3d324], with 0.068. In the case of TAACTTGTCGTAAGACACTTTGGATGGGTTGA [2d47], the fraction ligated was found to be 0.271. Then “TATCACTGTCGTAGACACTTTGGAGGGTTGA [3d1394]”, with 0.13; and “TATCACTTGTTAAGAACTTTGGATGGGTTGA [3d1708]”, with 0.874; and “TATCCTTGTCGTAAAACTTTGGATGGGTTGA [3d1055]”, with 0.792. The figure for “TATCACTTGTGTAGACACTTTGGAGGGTTGA [3d1740]” is 0.0783; for “TATCACTGTCGTAAACACTTTGGTGGGTTGA [3d1403]” it is 0.086. The figure for TACACTTGTCGTAAGCATTTGGATGGGTTGA [3d684] is 0.453; for “TATCACTTGTCTAAGACATTTGGATGGTTGA [3d1875]” it is 0.137.

Turning to TATACTGTCGTAAGACACTTTGGATGGGTTG [3d795], the fraction ligated was 0.683. Then “TATCACTTGCGTAAACACTTTGGAGGGTTGA [3d1645]”, with 0.0516; and TACACTTGTCTAAGACACTTTGGAGGGTTGA [3d642], with 0.115. The figure for “TATCACTTGTCGTAAGAACTTTATGGGTTGA [3d2166]” is 0.067; for TACACTTGTCGTAGACCTTTGGATGGGTTGA [3d663] it is 0.173; for TATACTTGTCGTAACACTTTGGATGGGTTGA [3d871] it is 0.27. ATCACTTGTCGTAAACACTTTGGATGGTTGA [3d218] displayed a fraction ligated of 0.557. Then TACACTTGTCGTAAGACACTTTGATGGGTTA [3d725], with 0.0317. Take “TATCATTGTCGTAAACACTTGGATGGGTTGA [3d1230]”: the fraction ligated worked out at 0.778. With ACACTTGTCGTAAGCACTTTGGATGGGTTGA [3d35], the fraction ligated came out at 0.221.
